The values below come from US20140322218A1 (Amgen, published 2014).

One experiment has as its target T1, Cyno Cadherin-19 (cynomolgus monkey (Macaca fascicularis), UniProt Q9H159 44-772 (human entry)).
T1 construct: also called cyno CDH19; cynomologous CDH-19
T1 chain: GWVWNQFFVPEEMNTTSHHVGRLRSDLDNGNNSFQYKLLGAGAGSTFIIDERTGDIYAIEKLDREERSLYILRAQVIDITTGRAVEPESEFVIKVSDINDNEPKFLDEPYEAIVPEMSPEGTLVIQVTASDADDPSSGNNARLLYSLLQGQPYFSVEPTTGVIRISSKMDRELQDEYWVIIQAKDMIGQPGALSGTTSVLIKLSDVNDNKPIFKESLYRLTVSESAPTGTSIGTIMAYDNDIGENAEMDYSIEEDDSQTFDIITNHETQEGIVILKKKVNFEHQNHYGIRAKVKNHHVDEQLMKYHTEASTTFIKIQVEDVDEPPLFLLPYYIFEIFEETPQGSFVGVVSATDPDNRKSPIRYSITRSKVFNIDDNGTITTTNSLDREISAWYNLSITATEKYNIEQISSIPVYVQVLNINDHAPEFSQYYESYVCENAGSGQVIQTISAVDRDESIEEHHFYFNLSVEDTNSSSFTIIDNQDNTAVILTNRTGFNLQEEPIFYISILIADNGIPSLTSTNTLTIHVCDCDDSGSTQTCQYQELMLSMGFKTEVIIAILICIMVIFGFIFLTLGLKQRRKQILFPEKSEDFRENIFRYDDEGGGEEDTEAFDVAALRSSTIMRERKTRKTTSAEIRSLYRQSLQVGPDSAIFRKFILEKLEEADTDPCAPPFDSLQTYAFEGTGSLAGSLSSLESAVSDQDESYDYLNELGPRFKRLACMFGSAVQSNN
In words: FACS, recombinant cyno CDH19. Background: A flow cytometer gives signals particle by particle.

In the next experiment the target is T2, Human Cadherin-19 (human, UniProt Q9H159 44-772).
T2 construct: Residues 1-43 are named as the native leader in the construct designations and are left out; also called human CDH19; huCDH19
In words: FACS, endogenous CDH19 on CHL-1/Colo699.

Experiment [1] has as its target T3, huCDH19(44-772), Flag-tagged, on 293T cells (human, UniProt Q9H159 44-772).
T3 construct: Expressed with native leader (1-43) followed by a Flag tag; leader left out; also called Hu EC1-5
Briefly: FACS, transfected 293T.
From the text: (§1) The experiment included assaying the anti-CDH19 antibodies against mouse Cadherin19 to determine suitability for binning on these human/mouse chimeras.

The target of experiment [2] is T4, huCDH19(44-141)::muCDH19(140-770), Flag-tagged, on 293T cells (human/mouse chimera).
T4 construct: also called Hu EC1
In words: FACS, transfected 293T.
From the text: as §1

Experiment [3] has as its target T5, huCDH19(44-249)::muCDH19(248-770), Flag-tagged, on 293T cells (human/mouse chimera).
T5 construct: also called Hu EC1-2; C137896
Briefly: FACS, transfected 293T.
From the text: as §1

Experiment [4] has as its target T6, ckCDH19(1-43)::FLAG::ckCDH19(44-776), on 293T cells (chicken).
T6 construct: Entry holds leader (1-43), Flag tag and CDH19 part; leader left out; also called Ck EC1-5
T6 chain: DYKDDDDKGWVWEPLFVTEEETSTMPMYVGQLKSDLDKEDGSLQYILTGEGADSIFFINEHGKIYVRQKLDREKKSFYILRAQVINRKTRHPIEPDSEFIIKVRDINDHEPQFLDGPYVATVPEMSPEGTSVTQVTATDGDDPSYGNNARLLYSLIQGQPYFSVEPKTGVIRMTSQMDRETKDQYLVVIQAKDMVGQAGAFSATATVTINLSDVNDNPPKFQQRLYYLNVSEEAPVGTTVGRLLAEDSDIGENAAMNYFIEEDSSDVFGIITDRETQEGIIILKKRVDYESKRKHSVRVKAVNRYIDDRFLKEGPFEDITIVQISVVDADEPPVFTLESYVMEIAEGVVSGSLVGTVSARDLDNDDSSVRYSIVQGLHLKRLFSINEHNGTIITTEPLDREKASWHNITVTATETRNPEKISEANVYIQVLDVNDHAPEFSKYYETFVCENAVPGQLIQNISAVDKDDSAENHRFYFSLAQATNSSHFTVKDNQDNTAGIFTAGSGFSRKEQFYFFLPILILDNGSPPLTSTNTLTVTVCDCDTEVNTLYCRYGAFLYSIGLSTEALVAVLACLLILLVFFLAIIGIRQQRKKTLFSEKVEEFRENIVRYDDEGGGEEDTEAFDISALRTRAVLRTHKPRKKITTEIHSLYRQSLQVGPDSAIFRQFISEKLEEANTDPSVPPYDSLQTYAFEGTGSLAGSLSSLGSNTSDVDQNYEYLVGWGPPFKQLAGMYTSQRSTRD
Briefly: FACS, transfected 293T.
Method: (§2) The following binding assay was completed in presence of 2 mM CaCl2. […] Cells were then washed one time and the amount of cell associated Alexa647-labelled Ab was quantitated by flow cytometry. The experiments included mock transfected controls.

The target of experiment [5] is T7, huCDH19(1-43)::FLAG::hu(44-141)::ckCDH19(142-776), on 293T cells (human/chicken chimera).
T7 construct: Entry holds leader (1-43), Flag tag and CDH19 part; leader left out; also called Hu EC1 (chicken backbone)
Briefly: FACS, transfected 293T.
Method: as §2

Experiment [6] addresses T8, ckCDH19(1-43)::FLAG::ckCDH19(44-141)::huCDH19(142-249)::ckCDH19(250-776), on 293T cells (human/chicken chimera).
T8 construct: Entry holds leader (1-43), Flag tag and CDH19 part; leader left out; also called Hu EC2 (chicken backbone)
T8 chain: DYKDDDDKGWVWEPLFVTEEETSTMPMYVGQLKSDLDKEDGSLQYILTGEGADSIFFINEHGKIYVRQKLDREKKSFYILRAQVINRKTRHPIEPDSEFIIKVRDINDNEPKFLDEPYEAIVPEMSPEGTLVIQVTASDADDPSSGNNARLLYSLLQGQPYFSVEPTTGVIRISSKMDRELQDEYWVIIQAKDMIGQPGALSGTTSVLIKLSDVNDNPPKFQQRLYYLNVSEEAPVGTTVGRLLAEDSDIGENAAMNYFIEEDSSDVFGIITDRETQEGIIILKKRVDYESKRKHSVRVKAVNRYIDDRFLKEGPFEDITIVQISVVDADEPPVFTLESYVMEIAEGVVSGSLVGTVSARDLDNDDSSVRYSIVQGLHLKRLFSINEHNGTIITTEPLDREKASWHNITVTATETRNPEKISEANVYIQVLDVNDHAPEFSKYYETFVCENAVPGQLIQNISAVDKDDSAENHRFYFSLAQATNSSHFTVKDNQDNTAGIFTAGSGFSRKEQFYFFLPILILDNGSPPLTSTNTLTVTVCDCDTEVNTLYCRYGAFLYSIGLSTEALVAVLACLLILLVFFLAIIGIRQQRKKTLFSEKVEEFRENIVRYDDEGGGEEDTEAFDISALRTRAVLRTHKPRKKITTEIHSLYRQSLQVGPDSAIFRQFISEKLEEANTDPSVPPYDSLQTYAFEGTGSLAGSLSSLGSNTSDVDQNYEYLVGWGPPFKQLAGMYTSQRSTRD
In words: FACS, transfected 293T.
Method: as §2

Experiment [7] deals with T9, (1-43)::FLAG::ckCDH19(44-468)::huCDH19(464-772), on 293T cells (human/chicken chimera).
T9 construct: Entry holds leader (1-43), Flag tag and CDH19 part; leader left out; also called Hu EC5 (chicken backbone)
T9 chain: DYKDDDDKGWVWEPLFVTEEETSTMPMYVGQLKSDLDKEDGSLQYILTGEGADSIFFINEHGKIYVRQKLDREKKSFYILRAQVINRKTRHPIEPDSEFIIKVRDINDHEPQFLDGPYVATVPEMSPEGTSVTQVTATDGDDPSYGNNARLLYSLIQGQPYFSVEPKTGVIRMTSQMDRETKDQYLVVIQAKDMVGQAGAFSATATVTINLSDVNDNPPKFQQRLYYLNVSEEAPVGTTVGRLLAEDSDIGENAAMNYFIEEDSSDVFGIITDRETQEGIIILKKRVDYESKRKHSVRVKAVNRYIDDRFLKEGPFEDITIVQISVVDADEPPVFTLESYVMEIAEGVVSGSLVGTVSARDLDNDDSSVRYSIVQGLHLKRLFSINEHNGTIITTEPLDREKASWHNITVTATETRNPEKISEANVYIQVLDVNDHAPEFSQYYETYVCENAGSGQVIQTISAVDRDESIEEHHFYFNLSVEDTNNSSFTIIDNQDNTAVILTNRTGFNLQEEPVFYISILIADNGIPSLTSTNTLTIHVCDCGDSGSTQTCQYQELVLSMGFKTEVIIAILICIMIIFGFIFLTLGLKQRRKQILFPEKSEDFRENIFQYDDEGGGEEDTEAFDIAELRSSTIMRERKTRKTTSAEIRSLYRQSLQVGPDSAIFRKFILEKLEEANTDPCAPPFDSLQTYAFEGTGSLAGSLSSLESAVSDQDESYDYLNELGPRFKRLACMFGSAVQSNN
Briefly: FACS, transfected 293T.
Method: as §2

Method for Human Cadherin-19: FACS binding assays were performed to evaluate the binding of the anti-Cadherin-19 receptor specific antibodies to endogenous Cadherin-19 receptor expressed on the CHL-1 tumor cell lines.
FACs assays were performed by incubating hybridoma supernatants with 10,000 to 25,000 cells in PBS/2% Fetal bovine serum/2 mM Calcium Chloride at 4° C. for one hour followed by two washes with PBS/2% Fetal bovine serum/2 mM Calcium Chloride. Cells were then treated with florochrome-labeled secondary antibodies at 4° C. followed by one wash. The cells were resuspended in 50 μl of PBS/2% FBS and antibody binding was analyzed using a FACSCalibur™ instrument.

B1: hu anti-<huCDH19> 20D3.1 VH::huIgG1z / 20D3.1 VL::huLLC-C2 (Ab ID 13878) (antibody, V domains shown)
VH: QVQLVQSGAEVKKPGASVKVSCKVSGYTFTSYFIHWVRQAPGQGLEWMGIINPISVSTSYAQKFQGRVTMTRDTSTSTVFMELSSLRSEDTAVYYCARGGIQLWLHFDYWGQGTLVTVSS
VL: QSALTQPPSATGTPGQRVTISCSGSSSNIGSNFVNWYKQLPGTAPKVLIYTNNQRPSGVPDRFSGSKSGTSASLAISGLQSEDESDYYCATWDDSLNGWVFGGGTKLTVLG
notes: also called 16H2; 23E7
For the molecule B1, the binding result with Cyno Cadherin-19 and with Human Cadherin-19 was “binds” each time.

B2: hu anti-<huCDH19> 19B5.1 VH::huIgG1z / 19B5.1 VL::huLLC-C2 (Ab ID 13885) (antibody, V domains shown)
VH: QVQLVQSGAEVKKPGASVKVSCKVSGYTFTSYFIHWVRQAPGQGLEWMGIINPISVSTSYAQKFQGRVTMTRDTSTSTVFMELSSLRSEDTAVYYCARGGIQLWLHLDYWGQGTLVTVSS
VL: QSALTQPPSTTGTPGQRVTISCSGSRSNIGSNFVNWYKQLPGTAPKVLIYTNNQRPSGVPDRFSGSKSGTSASLAISGLQSEDESDYYCATWDDSMNGWVFGGGTKLTVLG
In the case of B2, the binding result with Cyno Cadherin-19 and with Human Cadherin-19 was “binds” in each case.

B3: hu anti-<huCDH19> 22D1.1 VH::huIgG1z / 22D1.1 VL::huLLC-C2 (Ab ID 13879) (antibody, V domains shown)
VH: QVQLVQSGAEVKKPGASVRVSCKVSGYTFTSYFIHWVRQAPGQGLEWMGIINPISVSTSYAQKFQGRVTMTRDTSTSTVFMELSSLRSEDTAVYYCARGGIQLWLHLDYWGQGTLVTVSS
VL: QSALTQPPSATGTPGQRVTISCSGSSSNIGSNFVNWYKQLPGTAPKVLIYTNNQRPSGVPDRFSGSKSGTSASLAISGLQSEDESDYYCATWDDSMNGWVFGGGTKLTVLG
Consider B3, for which the binding result in the experiment with Cyno Cadherin-19 and with Human Cadherin-19 was “binds” throughout.

B4: hu anti-<huCDH19> 25F8.1 VH::huIgG1z / 25F8.1 VL::huLLC-C2 (Ab ID 13880) (antibody, V domains shown)
VH: QVQLVQSGAEVKKPGASVKVSCKASGYTFTSYYIHWVRQAPGQGLEWMGIINPSGGSTRYAQKFQGRVTMTRDTSTSTVFMELSSLRSEDTAVYYCARGGIQLWLHFDYWGQGTLVTVSS
VL: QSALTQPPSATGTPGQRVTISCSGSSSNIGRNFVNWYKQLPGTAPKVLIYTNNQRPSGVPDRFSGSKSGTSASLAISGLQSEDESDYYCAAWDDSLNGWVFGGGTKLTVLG
For the molecule B4, the binding result (in experiment [1]; in experiment [2]; in [3]; with Cyno Cadherin-19; with Human Cadherin-19) was “binds” each time.

B5: hu anti-<huCDH19> 17H8.2 VH::huIgG1z / 17H8.2 VL::huKLC (Ab ID 13874) (antibody, V domains shown)
VH: QVQLQESGPGLVKPSETLSLTCTVSGGSINSYYWSWIRQPPGKGLEWIGYIYYIGSTNYNPSLKSRVTISVDTSKNQFSLKLSSVTAADTALYYCARDSRYRSGWYDAFDIWGQGTMVTVSS
VL: DIVLTQSPGTLSLSPGERATLSCRASQSVAGSYLAWYQQKPGQAPRLLISGASSRATGIPDRFSGSGSGTDFTLTISRLEPEDFAVYYCQQYGKSPITFGQGTRLEMKG
notes: also called 23B6; 28D10
For B5, the binding result in experiment [4] is on record as “no binding (tested: 5 ug/ml)”; in experiment [5] it was “binds”; in experiment [6] it was “no binding (tested: 5 ug/ml)”; in [7], “no binding (tested: 5 ug/ml)”.

B6: hu anti-<huCDH19> 4F7 VH::huIgG1z / 4F7 VL::huLLC-C1 (Ab ID 13591) (antibody, V domains shown)
VH: QVQLQESGPGLVKPSETLSLTCTVSGGSISSYSWSWIRQPPGKGLEWIGYIYYSGSTNYNPSLKSRVTISLDTSKNQFSLKLSSVTAADTAVYYCARNWAFHFDYWGQGTLVTVSS
VL: QSVLTQPPSVSGAPGQRVTISCTGSSSNIGTGYDVHWYQQLPGTAPKLLIHGNSNRPSGVPDRFSGSKSGTSASLAITGLQAEDEADYYCQSYDSSLSGWVFGGGTRLTVLG
As to B6, the binding result in the experiment with Cyno Cadherin-19 and in the experiment with Human Cadherin-19 was “binds” throughout.
